Experimental data from publication PMC7367873, “Dissecting the sequence determinants for dephosphorylation by the catalytic subunits of phosphatases PP1 and PP2A” (Nature Communications, 2020).

B1: SND1 (protein, UniProt Q7KZF4 2-910, looked up)
Staphylococcal nuclease …: ASSAQSGGSSGGPAVPTVQRGIIKMVLSGCAIIVRGQPRGGPPPERQINLSNIRAGNLARRAAATQPDAKDTPDEPWAFPAREFLRKKLIGKEVCFTIENKTPQGREYGMIYLGKDTNGENIAESLVAEGLATRREGMRANNPEQNRLSECEEQAKAAKKGMWSEGNGSHTIRDLKYTIENPRHFVDSHHQKPVNAIIEHVRDGSVVRALLLPDYYLVTVMLSGIKCPTFRREADGSETPEPFAAEAKFFTESRLLQRDVQIILESCHNQNILGTILHPNGNITELLLKEGFARCVDWSIAVYTRGAEKLRAAERFAKERRLRIWRDYVAPTANLDQKDKQFVAKVMQVLNADAIVVKLNSGDYKTIHLSSIRPPRLEGENTQDKNKKLRPLYDIPYMFEAREFLRKKLIGKKVNVTVDYIRPASPATETVPAFSERTCATVTIGGINIAEALVSKGLATVIRYRQDDDQRSSHYDELLAAEARAIKNGKGLHSKKEVPIHRVADISGDTQKAKQFLPFLQRAGRSEAVVEYVFSGSRLKLYLPKETCLITFLLAGIECPRGARNLPGLVQEGEPFSEEATLFTKELVLQREVEVEVESMDKAGNFIGWLHIDGANLSVLLVEHALSKVHFTAERSSYYKSLLSAEEAAKQKKEKVWAHYEEQPVEEVMPVLEEKERSASYKPVFVTEITDDLHFYVQDVETGTQLEKLMENMRNDIASHPPVEGSYAPRRGEFCIAKFVDGEWYRARVEKVESPAKIHVFYIDYGNREVLPSTRLGTLSPAFSTRVLPAQATEYAFAFIQVPQDDDARTDAVDSVVRDIQNTQCLLNVEHLSAGCPHVTLQFADSKGDVGLGLVKEGLVMVEVRKEKQFQKVITEYLNAQESAKSARLNLWRYGDFRADDADEFGYSR
B2: PPP1R12A (protein, UniProt O14974 1-1030, looked up)
Protein phosphatase 1 …: MKMADAKQKRNEQLKRWIGSETDLEPPVVKRQKTKVKFDDGAVFLAACSSGDTDEVLKLLHRGADINYANVDGLTALHQACIDDNVDMVKFLVENGANINQPDNEGWIPLHAAASCGYLDIAEFLIGQGAHVGAVNSEGDTPLDIAEEEAMEELLQNEVNRQGVDIEAARKEEERIMLRDARQWLNSGHINDVRHAKSGGTALHVAAAKGYTEVLKLLIQAGYDVNIKDYDGWTPLHAAAHWGKEEACRILVDNLCDMEMVNKVGQTAFDVADEDILGYLEELQKKQNLLHSEKRDKKSPLIESTANMDNNQSQKTFKNKETLIIEPEKNASRIESLEQEKVDEEEEGKKDESSCSSEEDEEDDSESEAETDKTKPLASVTNANTSSTQAAPVAVTTPTVSSGQATPTSPIKKFPTTATKISPKEEERKDESPATWRLGLRKTGSYGALAEITASKEGQKEKDTAGVTRSASSPRLSSSLDNKEKEKDSKGTRLAYVAPTIPRRLASTSDIEEKENRDSSSLRTSSSYTRRKWEDDLKKNSSVNEGSTYHKSCSFGRRQDDLISSSVPSTTSTPTVTSAAGLQKSLLSSTSTTTKITTGSSSAGTQSSTSNRLWAEDSTEKEKDSVPTAVTIPVAPTVVNAAASTTTLTTTTAGTVSSTTEVRERRRSYLTPVRDEESESQRKARSRQARQSRRSTQGVTLTDLQEAEKTIGRSRSTRTREQENEEKEKEEKEKQDKEKQEEKKESETSREDEYKQKYSRTYDETYQRYRPVSTSSSTTPSSSLSTMSSSLYASSQLNRPNSLVGITSAYSRGITKENEREGEKREEEKEGEDKSQPKSIRERRRPREKRRSTGVSFWTQDSDENEQEQQSDTEEGSNKKETQTDSISRYETSSTSAGDRYDSLLGRSGSYSYLEERKPYSSRLEKDDSTDFKKLYEQILAENEKLKAQLHDTNMELTDLKLQLEKATQRQERFADRSLLEMEKRERRALERRISEMEEELKMLPDLKADNQRLKDENGALIRVISKLSK
B3: KIF5B (protein, UniProt P33176 2-963, looked up)
Kinesin-1 heavy chain: ADLAECNIKVMCRFRPLNESEVNRGDKYIAKFQGEDTVVIASKPYAFDRVFQSSTSQEQVYNDCAKKIVKDVLEGYNGTIFAYGQTSSGKTHTMEGKLHDPEGMGIIPRIVQDIFNYIYSMDENLEFHIKVSYFEIYLDKIRDLLDVSKTNLSVHEDKNRVPYVKGCTERFVCSPDEVMDTIDEGKSNRHVAVTNMNEHSSRSHSIFLINVKQENTQTEQKLSGKLYLVDLAGSEKVSKTGAEGAVLDEAKNINKSLSALGNVISALAEGSTYVPYRDSKMTRILQDSLGGNCRTTIVICCSPSSYNESETKSTLLFGQRAKTIKNTVCVNVELTAEQWKKKYEKEKEKNKILRNTIQWLENELNRWRNGETVPIDEQFDKEKANLEAFTVDKDITLTNDKPATAIGVIGNFTDAERRKCEEEIAKLYKQLDDKDEEINQQSQLVEKLKTQMLDQEELLASTRRDQDNMQAELNRLQAENDASKEEVKEVLQALEELAVNYDQKSQEVEDKTKEYELLSDELNQKSATLASIDAELQKLKEMTNHQKKRAAEMMASLLKDLAEIGIAVGNNDVKQPEGTGMIDEEFTVARLYISKMKSEVKTMVKRCKQLESTQTESNKKMEENEKELAACQLRISQHEAKIKSLTEYLQNVEQKKRQLEESVDALSEELVQLRAQEKVHEMEKEHLNKVQTANEVKQAVEQQIQSHRETHQKQISSLRDEVEAKAKLITDLQDQNQKMMLEQERLRVEHEKLKATDQEKSRKLHELTVMQDRREQARQDLKGLEETVAKELQTLHNLRKLFVQDLATRVKKSAEIDSDDTGGSAAQKQKISFLENNLEQLTKVHKQLVRDNADLRCELPKLEKRLRATAERVKALESALKEAKENASRDRKRYQQEVDRIKEAVRSKNMARRGHSAQIAKPIRPGQHPAASPTHPSAIRGGGAFVQNSQPVAVRGGGGKQV
B4: MPRIP (protein, UniProt Q6WCQ1 2-1025, looked up)
Myosin phosphatase …: SAAKENPCRKFQANIFNKSKCQNCFKPRESHLLNDEDLTQAKPIYGGWLLLAPDGTDFDNPVHRSRKWQRRFFILYEHGLLRYALDEMPTTLPQGTINMNQCTDVVDGEGRTGQKFSLCILTPEKEHFIRAETKEIVSGWLEMLMVYPRTNKQNQKKKRKVEPPTPQEPGPAKVAVTSSSSSSSSSSSIPSAEKVPTTKSTLWQEEMRTKDQPDGSSLSPAQSPSQSQPPAASSLREPGLESKEEESAMSSDRMDCGRKVRVESGYFSLEKTKQDLKAEEQQLPPPLSPPSPSTPNHRRSQVIEKFEALDIEKAEHMETNAVGPSPSSDTRQGRSEKRAFPRKRDFTNEAPPAPLPDASASPLSPHRRAKSLDRRSTEPSVTPDLLNFKKGWLTKQYEDGQWKKHWFVLADQSLRYYRDSVAEEAADLDGEIDLSACYDVTEYPVQRNYGFQIHTKEGEFTLSAMTSGIRRNWIQTIMKHVHPTTAPDVTSSLPEEKNKSSCSFETCPRPTEKQEAELGEPDPEQKRSRARERRREGRSKTFDWAEFRPIQQALAQERVGGVGPADTHEPLRPEAEPGELERERARRREERRKRFGMLDATDGPGTEDAALRMEVDRSPGLPMSDLKTHNVHVEIEQRWHQVETTPLREEKQVPIAPVHLSSEDGGDRLSTHELTSLLEKELEQSQKEASDLLEQNRLLQDQLRVALGREQSAREGYVLQATCERGFAAMEETHQKKIEDLQRQHQRELEKLREEKDRLLAEETAATISAIEAMKNAHREEMERELEKSQRSQISSVNSDVEALRRQYLEELQSVQRELEVLSEQYSQKCLENAHLAQALEAERQALRQCQRENQELNAHNQELNNRLAAEITRLRTLLTGDGGGEATGSPLAQGKDAYELEVLLRVKESEIQYLKQEISSLKDELQTALRDKKYASDKYKDIYTELSIAKAKADCDISRLKEQLKAATEALGEKSPDSATVSGYDIMKSKSNPDFLKKDRSCVTRQLRNIRSKSVIEQVSWDT
B5: BAIAP2 (protein, UniProt Q9UQB8 1-552, looked up)
BAR/IMD domain-containing …: MSLSRSEEMHRLTENVYKTIMEQFNPSLRNFIAMGKNYEKALAGVTYAAKGYFDALVKMGELASESQGSKELGDVLFQMAEVHRQIQNQLEEMLKSFHNELLTQLEQKVELDSRYLSAALKKYQTEQRSKGDALDKCQAELKKLRKKSQGSKNPQKYSDKELQYIDAISNKQGELENYVSDGYKTALTEERRRFCFLVEKQCAVAKNSAAYHSKGKELLAQKLPLWQQACADPSKIPERAVQLMQQVASNGATLPSALSASKSNLVISDPIPGAKPLPVPPELAPFVGRMSAQESTPIMNGVTGPDGEDYSPWADRKAAQPKSLSPPQSQSKLSDSYSNTLPVRKSVTPKNSYATTENKTLPRSSSMAAGLERNGRMRVKAIFSHAAGDNSTLLSFKEGDLITLLVPEARDGWHYGESEKTKMRGWFPFSYTRVLDSDGSDRLHMSLQQGKSSSTGNLLDKDDLAIPPPDYGAASRAFPAQTASGFKQRPYSVAVPAFSQGLDDYGARSMSRNPFAHVQLKPTVTNDRCDLSAQGPEGREHGDGSARTLAGR
B6: ZYX (protein, UniProt Q15942 2-572, looked up)
Zyxin: AAPRPSPAISVSVSAPAFYAPQKKFGPVVAPKPKVNPFRPGDSEPPPAPGAQRAQMGRVGEIPPPPPEDFPLPPPPLAGDGDDAEGALGGAFPPPPPPIEESFPPAPLEEEIFPSPPPPPEEEGGPEAPIPPPPQPREKVSSIDLEIDSLSSLLDDMTKNDPFKARVSSGYVPPPVATPFSSKSSTKPAAGGTAPLPPWKSPSSSQPLPQVPAPAQSQTQFHVQPQPQPKPQVQLHVQSQTQPVSLANTQPRGPPASSPAPAPKFSPVTPKFTPVASKFSPGAPGGSGSQPNQKLGHPEALSAGTGSPQPPSFTYAQQREKPRVQEKQHPVPPPAQNQNQVRSPGAPGPLTLKEVEELEQLTQQLMQDMEHPQRQNVAVNELCGRCHQPLARAQPAVRALGQLFHIACFTCHQCAQQLQGQQFYSLEGAPYCEGCYTDTLEKCNTCGEPITDRMLRATGKAYHPHCFTCVVCARPLEGTSFIVDQANRPHCVPDYHKQYAPRCSVCSEPIMPEPGRDETVRVVALDKNFHMKCYKCEDCGKPLSIEADDNGCFPLDGHVLCRKCHTARAQT

system: GFP-14-3-3β; test: GFP-14-3-3β co-IP with LC-MS/MS, untreated GFP-14-3-3β versus GFP control (14-3-3 interactome); assay type: binding, human; details: log2 difference; pairwise comparison untreated vs GFP, label-free quantification, 3 replicates each

In the case of B1, the “Difference (log2), untreated vs GFP” value is reported as -0.5008.

same assay, conditions: untreated vs GFP; LFQ intensities, replicates 1-3

Point of comparison: B5, “Difference (log2), untreated vs GFP” value 2.991 log2. Against it:
- B2 — lower, 2.126 log2
- B3 — higher, 3.573 log2
- B4 — lower, 1.085 log2
- B6 — lower, -0.162 log2

system: GFP-14-3-3β and its binding proteins; test: GFP-14-3-3β co-IP with LC-MS/MS label-free quantification, untreated versus PP1c-treated; design: species or system human; details: PP1 vs untreated; LFQ intensities, replicates 1-3

Point of comparison: B5, “Difference (log2), PP1 vs untreated” value -1.977 log2. Against it:
- B2 — higher, -1.93 log2
- B3 — higher, -1.944 log2
- B4 — higher, -1.951 log2
- B6 — lower, -2.012 log2

same assay, conditions: log2 difference; pairwise comparison PP1 vs untreated, label-free quantification, 3 replicates each

B1 was tested, and the “Difference (log2), PP1 vs untreated” value was 1.5668.
